Source: paper PMC11574045, “A cofactor-induced repressive type of transcription factor condensation can be induced by synthetic peptides to suppress tumorigenesis” (The EMBO Journal, 2024)

System: HEK293FT cells transfected with TF library
Assay: Screening of TF condensates based on fluorescent puncta
Format: cell-based
Conditions: Figure 1B numerical data; TF library screen, one value per transcriptional factor
Method in brief: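 Condensate formation is scored as Alexa 488-labelled puncta after Flag- or GAL4-tag immunostaining of fixed HEK293FT cells expressing individual TFs, with a 12 h glucose-free or glucose-containing culture preceding fixation.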

B1: BCL11A (protein, UniProt Q9H165 1-835, looked up)
BCL11 transcription factor A: MSRRKQGKPQHLSKREFSPEPLEAILTDDEPDHGPLGAPEGDHDLLTCGQCQMNFPLGDILIFIEHKRKQCNGSLCLEKAVDKPPSPSPIEMKKASNPVEVGIQVTPEDDDCLSTSSRGICPKQEHIADKLLHWRGLSSPRSAHGALIPTPGMSAEYAPQGICKDEPSSYTCTTCKQPFTSAWFLLQHAQNTHGLRIYLESEHGSPLTPRVGIPSGLGAECPSQPPLHGIHIADNNPFNLLRIPGSVSREASGLAEGRFPPTPPLFSPPPRHHLDPHRIERLGAEEMALATHHPSAFDRVLRLNPMAMEPPAMDFSRRLRELAGNTSSPPLSPGRPSPMQRLLQPFQPGSKPPFLATPPLPPLQSAPPPSQPPVKSKSCEFCGKTFKFQSNLVVHRRSHTGEKPYKCNLCDHACTQASKLKRHMKTHMHKSSPMTVKSDDGLSTASSPEPGTSDLVGSASSALKSVVAKFKSENDPNLIPENGDEEEEEDDEEEEEEEEEEEEELTESERVDYGFGLSLEAARHHENSSRGAVVGVGDESRALPDVMQGMVLSSMQHFSEAFHQVLGEKHKRGHLAEAEGHRDTCDEDSVAGESDRIDDGTVNGRGCSPGESASGGLSKKLLLGSPSSLSPFSKRIKLEKEFDLPPAAMPNTENVYSQWLAGYAASRQLKDPFLSFGDSRQSPFASSSEHSSENGSLRFSTPPGELDGGISGRSGTGSGGSTPHISGPGPGRPSSKEGRRSDTCEYCGKVFKNCSNLTVHRRSHTGERPYKCELCNYACAQSSKLTRHMKTHGQVGKDVYKCEICKMPFSVYSTLEKHMKKWHSDRVLNNDIKTE
  Z score of condensed fraction: -0.5173

B2: SIX3 (protein, UniProt O95343 1-332, looked up)
Homeobox protein SIX3: MVFRSPLDLYSSHFLLPNFADSHHRSILLASSGGGNGAGGGGGAGGGSGGGNGAGGGGAGGAGGGGGGGSRAPPEELSMFQLPTLNFSPEQVASVCETLEETGDIERLGRFLWSLPVAPGACEAINKHESILRARAVVAFHTGNFRDLYHILENHKFTKESHGKLQAMWLEAHYQEAEKLRGRPLGPVDKYRVRKKFPLPRTIWDGEQKTHCFKERTRSLLREWYLQDPYPNPSKKRELAQATGLTPTQVGNWFKNRRQRDRAAAAKNRLQHQAIGPSGMRSLAEPGCPTHGSAESPSTAASPTTSVSSLTERADTGTSILSVTSSDSECDV
  Z score of condensed fraction: -0.646

B3: SIX2 (protein, UniProt Q9NPC8 1-291, looked up)
Homeobox protein SIX2: MSMLPTFGFTQEQVACVCEVLQQGGNIERLGRFLWSLPACEHLHKNESVLKAKAVVAFHRGNFRELYKILESHQFSPHNHAKLQQLWLKAHYIEAEKLRGRPLGAVGKYRVRRKFPLPRSIWDGEETSYCFKEKSRSVLREWYAHNPYPSPREKRELAEATGLTTTQVSNWFKNRRQRDRAAEAKERENNENSNSNSHNPLNGSGKSVLGSSEDEKTPSGTPDHSSSSPALLLSPPPPGLPSLHSLGHPPGPSAVPVPVPGGGGADPLQHHHGLQDSILNPMSANLVDLGS
  Z score of condensed fraction: -0.1884

B4: SIRT2 (protein, UniProt Q8IXJ6 2-389, looked up)
NAD-dependent protein …: AEPDPSHPLETQAGKVQEAQDSDSDSEGGAAGGEADMDFLRNLFSQTLSLGSQKERLLDELTLEGVARYMQSERCRRVICLVGAGISTSAGIPDFRSPSTGLYDNLEKYHLPYPEAIFEISYFKKHPEPFFALAKELYPGQFKPTICHYFMRLLKDKGLLLRCYTQNIDTLERIAGLEQEDLVEAHGTFYTSHCVSASCRHEYPLSWMKEKIFSEVTPKCEDCQSLVKPDIVFFGESLPARFFSCMQSDFLKVDLLLVMGTSLQVQPFASLISKAPLSTPRLLINKEKAGQSDPFLGMIMGLGGGMDFDSKKAYRDVAWLGECDQGCLALAELLGWKKELEDLVRREHASIDAQSGAGVPNPSTSASPKKSPPPAKDEARTTEREKPQ
  Z score of condensed fraction: 0.4793

B5: SETD8 (protein, UniProt Q9NQR1 1-393, looked up)
N-lysine methyltransferase …: MGEGGAAAALVAAAAAAAAAAAAVVAGQRRRRLGRRARCHGPGRAAGGKMSKPCAVEAAAAAVAATAPGPEMVERRGPGRPRTDGENVFTGQSKIYSYMSPNKCSGMRFPLQEENSVTHHEVKCQGKPLAGIYRKREEKRNAGNAVRSAMKSEEQKIKDARKGPLVPFPNQKSEAAEPPKTPPSSCDSTNAAIAKQALKKPIKGKQAPRKKAQGKTQQNRKLTDFYPVRRSSRKSKAELQSEERKRIDELIESGKEEGMKIDLIDGKGRGVIATKQFSRGDFVVEYHGDLIEITDAKKREALYAQDPSTGCYMYYFQYLSKTYCVDATRETNRLGRLINHSKCGNCQTKLHDIDGVPHLILIASRDIAAGEELLYDYGDRSKASIEAHPWLKH
  Z score of condensed fraction: -0.8816

B6: SIX1 (protein, UniProt Q15475 1-284, looked up)
Homeobox protein SIX1: MSMLPSFGFTQEQVACVCEVLQQGGNLERLGRFLWSLPACDHLHKNESVLKAKAVVAFHRGNFRELYKILESHQFSPHNHPKLQQLWLKAHYVEAEKLRGRPLGAVGKYRVRRKFPLPRTIWDGEETSYCFKEKSRGVLREWYAHNPYPSPREKRELAEATGLTTTQVSNWFKNRRQRDRAAEAKERENTENNNSSSNKQNQLSPLEGGKPLMSSSEEEFSPPQSPDQNSVLLLQGNMGHARSSNYSLPGLTASQPSHGLQTHQHQLQDSLLGPLTSSLVDLGS
  Z score of condensed fraction: -0.6669

B7: SETD7 (protein, UniProt Q8WTS6 1-366, looked up)
Histone-lysine …: MDSDDEMVEEAVEGHLDDDGLPHGFCTVTYSSTDRFEGNFVHGEKNGRGKFFFFDGSTLEGYYVDDALQGQGVYTYEDGGVLQGTYVDGELNGPAQEYDTDGRLIFKGQYKDNIRHGVCWIYYPDGGSLVGEVNEDGEMTGEKIAYVYPDERTALYGKFIDGEMIEGKLATLMSTEEGRPHFELMPGNSVYHFDKSTSSCISTNALLPDPYESERVYVAESLISSAGEGLFSKVAVGPNTVMSFYNGVRITHQEVDSRDWALNGNTLSLDEETVIDVPEPYNHVSKYCASLGHKANHSFTPNCIYDMFVHPRFGPIKCIRTLRAVEADEELTVAYGYDHSPPGKSGPEAPEWYQVELKAFQATQQK
  Z score of condensed fraction: 0.4495

B8: SIM1 (protein, UniProt P81133 1-766, looked up)
Single-minded homolog 1: MKEKSKNAARTRREKENSEFYELAKLLPLPSAITSQLDKASIIRLTTSYLKMRVVFPEGLGEAWGHSSRTSPLDNVGRELGSHLLQTLDGFIFVVAPDGKIMYISETASVHLGLSQVELTGNSIYEYIHPADHDEMTAVLTAHQPYHSHFVQEYEIERSFFLRMKCVLAKRNAGLTCGGYKVIHCSGYLKIRQYSLDMSPFDGCYQNVGLVAVGHSLPPSAVTEIKLHSNMFMFRASLDMKLIFLDSRVAELTGYEPQDLIEKTLYHHVHGCDTFHLRCAHHLLLVKGQVTTKYYRFLAKHGGWVWVQSYATIVHNSRSSRPHCIVSVNYVLTDTEYKGLQLSLDQISASKPAFSYTSSSTPTMTDNRKGAKSRLSSSKSKSRTSPYPQYSGFHTERSESDHDSQWGGSPLTDTASPQLLDPADRPGSQHDASCAYRQFSDRSSLCYGFALDHSRLVEERHFHTQACEGGRCEAGRYFLGTPQAGREPWWGSRAALPLTKASPESREAYENSMPHIASVHRIHGRGHWDEDSVVSSPDPGSASESGDRYRTEQYQSSPHEPSKIETLIRATQQMIKEEENRLQLRKAPSDQLASINGAGKKHSLCFANYQQPPPTGEVCHGSALANTSPCDHIQQREGKMLSPHENDYDNSPTALSRISSPNSDRISKSSLILAKDYLHSDISPHQTAGDHPTVSPNCFGSHRQYFDKHAYTLTGYALEHLYDSETIRNYSLGCNGSHFDVTSHLRMQPDPAQGHKGTSVIITNGS
  Z score of condensed fraction: -1.099

B9: SCX (protein, UniProt Q7RTU7 1-201, looked up)
Basic helix-loop-helix …: MSFATLRPAPPGRYLYPEVSPLSEDEDRGSDSSGSDEKPCRVHAARCGLQGARRRAGGRRAGGGGPGGRPGREPRQRHTANARERDRTNSVNTAFTALRTLIPTEPADRKLSKIETLRLASSYISHLGNVLLAGEACGDGQPCHSGPAFFHAARAGSPPPPPPPPPARDGENTQPKQICTFCLSNQRKLSKDRDRKTAIRS
  Z score of condensed fraction: -0.06618
